# Data taken from publication doi:10.1101/590430 (bioRxiv, 2019).
# B1: TcdB2 (TcB), as the TcB part of the TcdB2-TccC3 fusion protein (natural protein)
# chain: MQNSQDFSITELSLPKGGGAITGMGEALTPTGPDGMAALSLPLPISAGRGYAPAFTLNYNSGAGNSPFGLGWDCNVMTIRRRTHFGVPHYDETDTFLGPEGEVLVVADQPRDESTLQGINLGATFTVTGYRSRLESHFSRLEYWQPKTTGKTDFWLIYSPDGQVHLLGKSPQARISNPSQTTQTAQWLLEASVSSRGEQIYYQYRAEDDTGCEADEITHHLQATAQRYLHIVYYGNRTASETLPGLDGSAPSQADWLFYLVFDYGERSNNLKTPPAFSTTGSWLCRQDRFSRYEYGFEIRTRRLCRQVLMYHHLQALDSKITEHNGPTLVSRLILNYDESAIASTLVFVRRVGHEQDGNVVTLPPLELAYQDFSPRHHAHWQPMDVLANFNAIQRWQLVDLKGEGLPGLLYQDKGAWWYRSAQRLGEIGSDAVTWEKMQPLSVIPSLQSNASLVDINGDGQLDWVITGPGLRGYHSQRPDGSWTRFTPLNALPVEYTHPRAQLADLMGAGLSDLVLIGPKSVRLYANTRDGFAKGKDVVQSGDITLPVPGADPRKLVAFSDVLGSGQAHLVEVSATKVTCWPNLGRGRFGQPITLPGFSQPATEFNPAQVYLADLDGSGPTDLIYVHTNRLDIFLNKSGNGFAEPVTLRFPEGLRFDHTCQLQMADVQGLGVASLILSVPHMSPHHWRCDLTNMKPWLLNEMNNNMGVHHTLRYRSSSQFWLDEKAAALTTGQTPVCYLPFPIHTLWQTETEDEISGNKLVTTLRYARGAWDGREREFRGFGYVEQTDSHQLAQGNAPERTPPALTKNWYATGLPVIDNALSTEYWRDDQAFAGFSPRFTTWQDNKDVPLTPEDDNSRYWFNRALKGQLLRSELYGLDDSTNKHVPYTVTEFRSQVRRLQHTDSRYPVLWSSVVESRNYHYERIASDPQCSQNITLSSDRFGQPLKQLSVQYPRRQQPAINLYPDTLPDKLLANSYDDQQRQLRLTYQQSSWHHLTNNTVRVLGLPDSTRSDIFTYGAENVPAGGLNLELLSDKNSLIADDKPREYLGQQKTAYTDGQNTTPLQTPTRQALIAFTETTVFNQSTLSAFNGSIPSDKLSTTLEQAGYQQTNYLFPRTGEDKVWVAHHGYTDYGTAAQFWRPQKQSNTQLTGKITLIWDANYCVVVQTRDAAGLTTSAKYDWRFLTPVQLTDINDNQHLITLDALGRPITLRFWGTENGKMTGYSSPEKASFSPPSDVNAAIELKKPLPVAQCQVYAPESWMPVLSQKTFNRLAEQDWQKLYNARIITEDGRICTLAYRRWVQSQKAIPQLISLLNNGPRLPPHSLTLTTDRYDHDPEQQIRQQVVFSDGFGRLLQAAARHEAGMARQRNEDGSLIINVQHTENRWAVTGRTEYDNKGQPIRTYQPYFLNDWRYVSNDSARQEKEAYADTHVYDPIGREIKVITAKGWFRRTLFTPWFTVNEDENDTAAEVKKVKM
# Molecular target: P. luminescens TcdA1 (TcA) (P. luminescens, UniProt Q9RN43 1-2516)
# Experiment: cryo-EM structure
binder,measurement,value
B1,binding result,binds
